Measured values as given in patent publication US7405061.

Biological target: antigen PIPA (human)
Test: cell-based or functional assay

B1: monoclonal antibody PIP (antibody, V domains shown)
V domain 1: DVQLQESGPDLVKPSQSVSLTCTVTGYSITSGYGWHWIRQFPGNKLEWMGCIHYSGSTNYNPSLKSRISVTRDTSKNQFFLQLNSVTTEDTATYYCARREYGNYAMDYWGQGTSVTVSS
V domain 2: DVQLQESGPDLVKPSQSVSLTCTVTGYSITSGYGWHWIRQFPGNKLEWMGCIHYSGSTNYNPSLKSRISVTRDTSKNQFFLQLNSVTTEDTATYYCARREYGNYAMDYWGQGTSVTVSS
B1 gave a decrease in cell proliferation of OV90 cells (MTT) with PIP at 10 ug/ml and MAb-ZAP saporin-linked secondary antibody of 50 percent.
